Measurements from patent publication US9327008B2, “Cell-permeant peptide-based inhibitor of kinases” (Purdue Research Foundation, priority 2008, dated 2016).

Experiments:
Type in all cases: biochemical
[1] = target: T1, PKCδ (Homo sapiens, UniProt Q05655); test: Millipore radiometric kinase activity assay, PKCδ (h); conditions: for PKCδ Kinase Activity: peptide inhibitor 300 μM, SD of 2 samples
T1 construct: purchased Millipore (radiometric assay service)
Experimental: (§1) A commercial radiometric assay service (Millipore, Billerica, Mass.) was used to test the specificity and potency of peptides containing a coupled transduction domain and therapeutic domain, hereinafter “complete peptides”). In these assays, if the kinase is not inhibited by an inhibitor peptide, a positively charged substrate is phosphorylated with a radiolabeled phosphate group from an ATP.
In a final reaction volume of 25 μL, PKCδ (h) (5-10 mU) is incubated with 20 mM HEPES pH 7.4, 0.03% Triton X-100, 0.1 mg/mL phosphatidylserine, 10 μg/mL diacylglycerol, 50 μM […] [SEQ ID NO: 61], 10 mM MgAcetate and [γ-^33P-ATP] (specific activity approx. 500 cpm/pmol, concentration as required). The reaction is initiated by the addition of the MgATP mix. After incubation for 40 minutes at room temperature, the reaction is stopped by the addition of 5 μL of a 3% phosphoric acid solution. 10 μL of the reaction is then spotted onto a P30 filtermat and washed three times for 5 minutes in 75 mM phosphoric acid and once in methanol prior to drying and scintillation counting.
(§2) IC50 values for inhibitor peptides were determined using Millipore's IC50Profiler Express service. The IC50 value was estimated from a 10-point curve of one-half log dilutions. For peptides tested for specificity, the concentration of the peptides that inhibited approximately 95% of MK2 activity was chosen to profile against a battery of kinases related to MK2, cell viability, or human disease from MilliporeKinaseProfiler service. In both assays, compounds were supplied in dimethylsulfoxide (DMSO). Every kinase activity measurement was conducted in duplicate.
(§3) Therapeutic inhibitor peptides were assayed for activity against human kinases related to MK2, cell viability, or human disease. The assays were performed using concentrations of therapeutic inhibitor peptides that yielded 2% to 8% of normal MK2 activity. Error is reported as the standard deviation between 2 samples, and “c” is rat AMPK whereas all other kinases used are human kinases.
(§4) Additional therapeutic inhibitor peptide variants were assayed for activity against several human kinases representative of several families of kinases. These kinases included: MK2; MK3; CaMKI (calcium/calmodulin-dependent protein kinase); PRAK (p38 regulated/activated protein kinase, also known as mitogen-activated protein kinase activated protein kinase 5 (MAPKAPK5)); SAPK2a (p38α); IRAK4 (IL-1 receptor (IL-1R)-associated kinase); MLCK (myosin light chain kinase); PKBβ (protein kinase B); PCKδ (protein kinase C); and ROCK-I (Rho-associated serine/threonine kinase).

[2] = target: T2, PRAK (Homo sapiens, UniProt Q8IW41); test: Millipore radiometric kinase activity assay, PRAK (h); conditions: SD of 2 samples
T2 construct: purchased Millipore (assay service)
T2 sequence (Q8IW41 1-473): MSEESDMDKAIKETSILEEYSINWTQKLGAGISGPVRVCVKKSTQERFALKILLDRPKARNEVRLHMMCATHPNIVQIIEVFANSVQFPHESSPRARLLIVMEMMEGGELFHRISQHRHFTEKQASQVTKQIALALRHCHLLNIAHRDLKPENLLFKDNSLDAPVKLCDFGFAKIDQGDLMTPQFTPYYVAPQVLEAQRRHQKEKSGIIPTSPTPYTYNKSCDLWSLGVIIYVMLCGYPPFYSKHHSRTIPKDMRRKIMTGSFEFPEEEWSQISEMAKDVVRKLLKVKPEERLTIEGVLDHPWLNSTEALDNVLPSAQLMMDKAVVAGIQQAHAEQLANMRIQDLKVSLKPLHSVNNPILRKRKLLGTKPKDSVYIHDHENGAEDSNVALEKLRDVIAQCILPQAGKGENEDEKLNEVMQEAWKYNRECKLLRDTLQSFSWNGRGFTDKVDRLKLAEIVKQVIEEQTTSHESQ
Experimental: as §1
In a final reaction volume of 25 μL, PRAK (h) (5-10 mU) is incubated with 50 mM Naβ-glycerophosphate pH 7.5, 0.1 mM EGTA, 30 μM […] [SEQ ID NO: 65], 10 mM MgAcetate and [γ-^33P-ATP] (specific activity approx. 500 cpm/pmol, concentration as required). The reaction is initiated by the addition of the MgATP mix. After incubation for 40 minutes at room temperature, the reaction is stopped by the addition of 5 μL of a 3% phosphoric acid solution. 10 μL of the reaction is then spotted onto a P30 filtermat and washed three times for 5 minutes in 50 mM phosphoric acid and once in methanol prior to drying and scintillation counting.
as §2, §4

[3] = target: T3, MK3 (Homo sapiens, UniProt Q16644); test: Millipore radiometric kinase activity assay, MK3; conditions: SD of 2 samples
T3 construct: purchased Millipore (assay service)
Experimental: as §1, §2, §4

[4] = target: T4, SAPK2a (p38α) (Homo sapiens, UniProt Q16539); test: Millipore radiometric kinase activity assay, SAPK2a (h); conditions: for SAPK2a (p38α) Kinase Activity: peptide inhibitor 300 μM, SD of 2 samples
T4 construct: purchased Millipore (radiometric assay service)
Experimental: as §1
In a final reaction volume of 25 μL, SAPK2a (h) (5-10 mU) is incubated with 25 mM Tris pH 7.5, 0.02 mM EGTA, 0.33 mg/mL myelin basic protein, 10 mM MgAcetate and [γ-^33P-ATP] (specific activity approx. 500 cpm/pmol, concentration as required). The reaction is initiated by the addition of the MgATP mix. After incubation for 40 minutes at room temperature, the reaction is stopped by the addition of 5 μL of a 3% phosphoric acid solution. 10 μL of the reaction is then spotted onto a P30 filtermat and washed three times for 5 minutes in 75 mM phosphoric acid and once in methanol prior to drying and scintillation counting.
as §2, §3, §4

[5] = target: MK2 (Homo sapiens, UniProt P49137); test: Millipore radiometric IC50 and kinase activity assay, MK2; design: purchased Millipore (assay service); conditions: for MK2 Kinase Activity: SD of 2 samples
Experimental: as §1, §2, §3, §4

[6] = target: T5, EGFR (Homo sapiens, UniProt P00533); test: Millipore radiometric kinase activity assay, EGFR (h)
T5 construct: purchased Millipore (assay service)
Experimental: as §1
In a final reaction volume of 25 μL, EGFR (h) (5-10 mU) is incubated with 8 mM MOPS pH 7.0, 0.2 mM EDTA, 10 mM MnCl2, 0.1 mg/mL poly(Glu, Tyr) 4:1, 10 mM MgAcetate and [γ-^33P-ATP] (specific activity approx. 500 cpm/pmol, concentration as required). The reaction is initiated by the addition of the MgATP mix. After incubation for 40 minutes at room temperature, the reaction is stopped by the addition of 5 μL of a 3% phosphoric acid solution. 10 μL of the reaction is then spotted onto a Filtermat A and washed three times for 5 minutes in 75 mM phosphoric acid and once in methanol prior to drying and scintillation counting.
as §2, §3

[7] = peptide 100 μM, listed as KAFAKLAARLYRLARQLGVAA
[8] = peptide 30 μM, listed as WLRRIKAWLRRI-

T3 sequence (Q16644 whole entry): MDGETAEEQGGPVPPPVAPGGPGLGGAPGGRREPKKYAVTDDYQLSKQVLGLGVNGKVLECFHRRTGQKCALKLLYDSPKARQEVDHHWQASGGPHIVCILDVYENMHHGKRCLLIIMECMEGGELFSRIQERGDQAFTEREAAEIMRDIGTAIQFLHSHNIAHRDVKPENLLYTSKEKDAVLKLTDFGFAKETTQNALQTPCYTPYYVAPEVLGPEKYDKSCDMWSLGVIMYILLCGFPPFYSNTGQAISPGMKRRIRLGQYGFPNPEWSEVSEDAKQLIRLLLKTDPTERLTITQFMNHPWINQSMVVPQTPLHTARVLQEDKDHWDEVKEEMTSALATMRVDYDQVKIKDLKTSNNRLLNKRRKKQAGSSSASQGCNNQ
T1 sequence (Q05655 whole entry): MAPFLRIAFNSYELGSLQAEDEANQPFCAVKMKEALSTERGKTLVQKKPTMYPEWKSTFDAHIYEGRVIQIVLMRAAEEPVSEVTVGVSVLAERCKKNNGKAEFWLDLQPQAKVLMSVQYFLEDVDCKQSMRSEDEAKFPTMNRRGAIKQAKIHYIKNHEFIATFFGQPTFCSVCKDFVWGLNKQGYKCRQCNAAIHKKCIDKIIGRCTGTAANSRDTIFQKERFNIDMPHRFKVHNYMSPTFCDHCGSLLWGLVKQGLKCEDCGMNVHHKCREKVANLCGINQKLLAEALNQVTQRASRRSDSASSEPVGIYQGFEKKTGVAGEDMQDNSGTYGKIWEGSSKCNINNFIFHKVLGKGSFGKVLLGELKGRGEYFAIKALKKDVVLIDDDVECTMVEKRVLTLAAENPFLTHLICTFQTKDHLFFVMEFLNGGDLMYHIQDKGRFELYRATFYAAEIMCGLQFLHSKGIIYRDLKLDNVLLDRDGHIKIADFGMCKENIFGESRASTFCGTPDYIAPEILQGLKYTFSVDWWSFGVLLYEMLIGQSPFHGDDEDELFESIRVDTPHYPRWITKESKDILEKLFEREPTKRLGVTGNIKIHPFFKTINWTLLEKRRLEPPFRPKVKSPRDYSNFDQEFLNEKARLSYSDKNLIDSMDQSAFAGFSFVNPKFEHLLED
Chain of MK2 (P49137 whole entry): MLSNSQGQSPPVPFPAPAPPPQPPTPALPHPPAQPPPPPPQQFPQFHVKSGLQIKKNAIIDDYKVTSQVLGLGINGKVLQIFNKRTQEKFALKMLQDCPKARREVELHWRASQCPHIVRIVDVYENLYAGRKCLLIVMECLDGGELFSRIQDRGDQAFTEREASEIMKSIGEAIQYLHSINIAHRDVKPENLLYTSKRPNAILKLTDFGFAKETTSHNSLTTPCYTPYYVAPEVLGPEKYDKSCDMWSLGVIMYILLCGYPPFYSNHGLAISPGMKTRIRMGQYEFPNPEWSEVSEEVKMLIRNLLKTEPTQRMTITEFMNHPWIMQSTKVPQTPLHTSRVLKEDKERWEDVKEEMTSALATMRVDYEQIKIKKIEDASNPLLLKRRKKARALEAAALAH
T4 sequence (Q16539 whole entry): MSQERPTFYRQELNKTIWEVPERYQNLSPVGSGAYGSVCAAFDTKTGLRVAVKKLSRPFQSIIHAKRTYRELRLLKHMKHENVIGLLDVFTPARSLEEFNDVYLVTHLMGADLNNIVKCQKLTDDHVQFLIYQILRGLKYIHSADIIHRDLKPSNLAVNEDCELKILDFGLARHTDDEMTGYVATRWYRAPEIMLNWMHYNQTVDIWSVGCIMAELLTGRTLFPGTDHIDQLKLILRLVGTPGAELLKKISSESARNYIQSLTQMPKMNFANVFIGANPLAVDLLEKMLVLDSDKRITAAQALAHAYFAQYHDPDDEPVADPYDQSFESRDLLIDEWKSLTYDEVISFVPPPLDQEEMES

## FAKLAARLYRKALARQLGVAA
[1]; peptide 100 μM
  PKCδ Kinase Activity (%) (+SD %): 40(2) %
[2]; peptide inhibitor 100 μM
  PRAK Kinase Activity: 131(4) %
[3]; peptide inhibitor 100 μM
  MK3 Kinase Activity: 10(1) %
[4]; Table 5, 100 μM
  inhibition of SAPK2a activity (in words): inhibited activity of SAPK2a
[4]; peptide 100 μM
  SAPK2a Kinase Activity (%) (+SD %): 30(6) %
[5]; peptide inhibitor 100 μM
  MK2 Kinase Activity: 5(2) %

## KAFAKLAARLYRKALARQLGVAA
[1]; peptide 100 μM
  PKCδ Kinase Activity (%) (+SD %): 24 (3) %
[1]; [7]
  PKCδ Kinase Activity (%) (+SD %): 24(3) %
[2]; peptide inhibitor 100 μM
  PRAK Kinase Activity: 148(4) %
[3]; peptide inhibitor 100 μM
  MK3 Kinase Activity: 17(1) %
[6]; peptide 100 μM
  EGFR Kinase Activity (%) (+SD %): 16 (1) %
[4]; peptide 100 μM
  SAPK2a Kinase Activity (%) (+SD %): 59 (8) %
[4]; [7]
  SAPK2a Kinase Activity (%) (+SD %): 59(8) %
[5]; peptide inhibitor 100 μM
  MK2 Kinase Activity: 8(1) %

## WLRRIKAWLRRIKALNRQLGVAA
[1]; peptide 30 μM
  PKCδ Kinase Activity (%) (+SD %): 11(0) %
[1]; [8]
  PKCδ Kinase Activity (%) (+SD %): 11 (0) %
[1]; peptide 100 μM
  PKCδ Kinase Activity (%) (+SD %): 40 (2) %
[2]; peptide inhibitor 30 μM
  PRAK Kinase Activity: 67(9) %
[3]; peptide inhibitor 30 μM
  MK3 Kinase Activity: 16(2) %
[6]; peptide 30 μM
  EGFR Kinase Activity (%) (+SD %): 10 (4) %
[6]; peptide 100 μM
  EGFR Kinase Activity (%) (+SD %): 18 (2) %
[4]; peptide 30 μM
  SAPK2a Kinase Activity (%) (+SD %): 61(7) %
[4]; [8]
  SAPK2a Kinase Activity (%) (+SD %): 61 (7) %
[4]; peptide 100 μM
  SAPK2a Kinase Activity (%) (+SD %): 30 (6) %
[5]; peptide inhibitor 30 μM
  MK2 Kinase Activity: 2(1) %
[5]; same therapeutic domain KALNRQLGVAA
  fold lower IC50 than the therapeutic inhibitor peptide incorporating PTD YARAAARQARA (FIG. 2): greater than 30 fold

## YARAAARQARAKALARQLGVAA
[1]
  PKCδ Kinase Activity: 101(3) %
[2]; peptide inhibitor 300 μM
  PRAK Kinase Activity: 86(2) %
[3]; peptide inhibitor 300 μM
  MK3 Kinase Activity: 5(1) %
[4]
  SAPK2a (p38α) Kinase Activity: 66(3) %
[5]; peptide inhibitor 300 μM
  MK2 Kinase Activity: −7(0) %

## YARAAARQARAKALNRQLGVAA
[1]
  PKCδ Kinase Activity: 105(2) %
[2]; peptide inhibitor 300 μM
  PRAK Kinase Activity: 81(3) %
[3]; peptide inhibitor 300 μM
  MK3 Kinase Activity: 19(3) %
[4]
  SAPK2a (p38α) Kinase Activity: 100(6) %
[5]; peptide inhibitor 300 μM
  MK2 Kinase Activity: 10(3) %
